How the values were obtained:
[1] = target: T1, SARS-CoV-2 spike protein on authentic virus, strain SARS-CoV-2/human/AUS/VIC01/2020 (Victoria) (SARS-CoV-2, UniProt P0DTC2 14-1273); test: whole-virus capture ELISA, half-maximal binding
T1 construct: whole, on cells

[2] = target: T1, SARS-CoV-2 spike protein on authentic …; test: calculated from whole-virus ELISA binding and FRNT50
[3] = target: T1, SARS-CoV-2 spike protein on authentic …; test: cell-based or functional assay
[4] = target: T2, SARS-CoV-2 receptor binding domain with N501Y (SARS-CoV-2, UniProt P0DTC2 330-532); test: BLI, RBD immobilised on AR2G biosensor, 1:1 fit
T2 construct: range 330-532; also called RBD-N501Y; RBD N501Y

[5] = target: SARS-CoV-2 spike on whole virus (SARS-CoV-2/human/AUS/VIC01/2020, Victoria) (SARS-CoV-2, UniProt P0DTC2 14-1273); test: cell-based or functional assay
[6] = target: spike protein of SARS-CoV-2 strain P.1 (SARS-CoV-2, UniProt P0DTC2 14-1273); test: cell-based or functional assay
[7] = target: spike protein of SARS-CoV-2 strain B.1.1.7 (SARS-CoV-2, UniProt P0DTC2 14-1273); test: cell-based or functional assay
[8] = target: spike protein of SARS-CoV-2 strain B.1.351 (SARS-CoV-2, UniProt P0DTC2 14-1273); test: cell-based or functional assay
[9] = target: spike protein of SARS-CoV-2 strain Victoria (SARS-CoV-2/human/AUS/VIC01/2020) (SARS-CoV-2, UniProt P0DTC2 14-1273); test: cell-based or functional assay

Row | Binder | Kd [1] | % Occupancy [2] | Neutralisation IC50 [3] | Kd [4] | further results
1 | Fab of antibody 88 (Fab, V domains shown, also called 88 Fab; Fab 88) VH: QLQLQESGPGLVKPSQTLSLTCTVSGGSISSGSYNWTWIRQPAGKGLEWIGRIYNSGSTNYNPSLKSRVTISVDTSKNQLSLKVRSVTAADTAVYYCARHCSGGTCYPKYYYGMDVWGQGTTVTVSS VL: QSALTQPPSVSEAPRQRVTISCSGSSSNIGNNAVNWYQQFPGKAPKLLIYYDDLLPSGVSDRFSGSKSGTSASLAISGVQSEDEADYYCAAWDDSLNVVVFGGGTKLTVL | 1.21 nM | 85.2% | 6.95 nM | 0.65 nM | –
2 | mAb 222 (antibody, V domains shown) VH: EVQLVESGGGLIQPGGSLRLSCAASGLTVSSNYMSWVRQAPGKGLEWVSVIYSGGSTFYADSVKGRFTISRDNSKNTLYLQMNSLGAEDTAVYYCARGEGSPGNWFDPWGQGTLVTVSS VL: DVVMTQSPGTLSLSPGERATLSCRASQSVPSSYLAWYQQKPGQAPRLLIYGASTRATGIPDRFSGSGSGTDFTLTISRLEPEDFAVYYCQHYDTSPRFGGGTKVDIK | – | – | – | – | Neutralisation IC50 (FRNT) [5]: 0.016 µg/mL
3 | Fab of antibody 222 (Fab, V domains shown) VH: EVQLVESGGGLIQPGGSLRLSCAASGLTVSSNYMSWVRQAPGKGLEWVSVIYSGGSTFYADSVKGRFTISRDNSKNTLYLQMNSLGAEDTAVYYCARGEGSPGNWFDPWGQGTLVTVSS VL: DVVMTQSPGTLSLSPGERATLSCRASQSVPSSYLAWYQQKPGQAPRLLIYGASTRATGIPDRFSGSGSGTDFTLTISRLEPEDFAVYYCQHYDTSPRFGGGTKVDIK | – | – | – | 0.39 nM | –
4 | antibody 318 (antibody, V domains shown, also called mAb 318) VH: QVQLVQSGPEVKKPGTSVKVSCKASGFTLTSSAMQWVRQARGQRLEWIGWIVVGSGNTNYAQKFQERVTITRDMSTSTAYMELSSLRSEDTAVYYCAAGRGYNSDFDYWGQGTLVTVSS VL: AIRMTQSPGTLSLSPGERATLSCRASQSVSSSYLAWYQQRPGQAPRLLIYGTSSRATGIPDRFSGSGSGTDFTLTISRLEPEDFAVYYCQQYGYSVYTFGQGTKVDIK | – | – | – | – | IC50 (FRNT neutralisation) [6]: 0.083 µg/mL; IC50 (FRNT neutralisation) [7]: 0.185 µg/mL; IC50 (FRNT neutralisation) [8]: 0.019 µg/mL; IC50 (FRNT neutralisation) [9]: 0.029 µg/mL
5 | Fab of antibody 318 (Fab, V domains shown) VH: QVQLVQSGPEVKKPGTSVKVSCKASGFTLTSSAMQWVRQARGQRLEWIGWIVVGSGNTNYAQKFQERVTITRDMSTSTAYMELSSLRSEDTAVYYCAAGRGYNSDFDYWGQGTLVTVSS VL: AIRMTQSPGTLSLSPGERATLSCRASQSVSSSYLAWYQQRPGQAPRLLIYGTSSRATGIPDRFSGSGSGTDFTLTISRLEPEDFAVYYCQQYGYSVYTFGQGTKVDIK | – | – | – | 1.99 nM | –
6 | mAb 45 (antibody, V domains shown, also called antibody 45) VH: QVQLVESGGGVVQPGRSLRLSCAASGFTFSTYAMHWVRQAPGKGLEWVAVLSYDGSNKYYADSVKGRFTISRDNSKNTLYLQMNSLRAEDTAVYYCAKGGSYAYYYYMDVWGKGTTVTVSS VL: not shown | – | – | – | – | Neutralisation IC50 (FRNT) [5]: 2 µg/mL
7 | Fab of antibody 158 (Fab, V domains shown, also called 158 Fab; Fab 158) VH: EVQLLESGGDLIQPGGSLRLSCAASGVTVSSNYMSWVRQAPGKGLEWVSIIYPGGSTFYADSVKGRFTISRDNSKNTLYLQMHSLRAEDTAVYYCARDLGSGDMDVWGKGTTVTVSS VL: DIVMTQSPSFLSASVGDRVTITCRASQGISSYLAWYQQKPGKAPKLLIQAASTLQSGVPSRFSGSGSGTEFTLTISSLQPEDFATYYCQQLNSYRYTFGQGTKVEIK | 3.73 nM | 52.7% | 4.12 nM | 1.57 nM | –
8 | Fab of antibody 159 (Fab, V domains shown) VH: EVQLVESGGGVVQPGRSLRLSCAASGFTFSSYGMHWVRQAPGKGLEWVALISYDGGNRYYADSVKGRFTISRDNSKNTLYLQMNRLRAEDTAMYYCAKDRDDGWDWYYFMDVWGKGTTVTVSS VL: DIQLTQSPGTLSLSPGERATLSCRASQSISGNYLAWYQHKPGQAPRLLIYGASTRATGIPDRFSGSGSGTDFTLTISRLEPEDFAVYYCQQYGSSYTFGQGTKVEIK | 0.29 nM | – | – | – | –
9 | Fab of chimeric antibody 253H165L (Fab, V domains shown, also called 253H165L Fab) VH: not shown VL: DIVMTQSPGTLSLSPGERATLSCRASQSVRSSYLAWYQQKPGQAPRLLIYGASRRGTGIPDRFSGSGSGTDFTLTISRLEPEDFAVYYCQQYGSSPWTFGQGTKVEIK | 5.02 nM | 51.3% | 5.22 nM | – | –
10 | chimeric antibody 253H165L, full-length IgG (antibody, V domains shown, also called 253H165L IgG) VH: not shown VL: DIVMTQSPGTLSLSPGERATLSCRASQSVRSSYLAWYQQKPGQAPRLLIYGASRRGTGIPDRFSGSGSGTDFTLTISRLEPEDFAVYYCQQYGSSPWTFGQGTKVEIK | 0.09 nM | 24.5% | 0.03 nM | – | –
11 | mAb 175 (antibody, V domains shown) VH: EVQLVESGGGLIQPGGSLRLSCAASGLTVSRNYMSWVRQAPGKGLEWVSLIYSGGSTYYADSVKGRFTISRDNSKNTLYLQMNSLRAEDTAVYYCARDLRGEVWGQGTMVTVSS VL: not shown | – | – | – | – | Neutralisation IC50 (FRNT) [5]: 0.033 µg/mL
12 | Fab of antibody 175 (Fab, V domains shown) VH: EVQLVESGGGLIQPGGSLRLSCAASGLTVSRNYMSWVRQAPGKGLEWVSLIYSGGSTYYADSVKGRFTISRDNSKNTLYLQMNSLRAEDTAVYYCARDLRGEVWGQGTMVTVSS VL: not shown | – | – | – | 2.54 nM | –
13 | mAb 269 (antibody, V domains shown) VH: QVQLVESGGGLIQPGGSLRLSCAASGLTVNRNYMSWIRQAPGKGLEWVSVIYSGGSTFYADSVKGRFTISRDNSKNTLSLQMNSLRAEDTAIYYCARDFYEGSFDIWGQGTMVTVSS VL: AIQLTQSPSFLSASIGDRVTITCRASQGISSYLAWYQQKPGKAPKLLIYAASTLQSGVPSRFSGSGSGTEFTLTISSLQPEDFASYYCQQLNSYPAPVFGPGTKVDIK | – | – | – | – | Neutralisation IC50 (FRNT) [5]: 0.036 µg/mL
14 | Fab of antibody 269 (Fab, V domains shown, also called 269 Fab; COVOX-269) VH: QVQLVESGGGLIQPGGSLRLSCAASGLTVNRNYMSWIRQAPGKGLEWVSVIYSGGSTFYADSVKGRFTISRDNSKNTLSLQMNSLRAEDTAIYYCARDFYEGSFDIWGQGTMVTVSS VL: AIQLTQSPSFLSASIGDRVTITCRASQGISSYLAWYQQKPGKAPKLLIYAASTLQSGVPSRFSGSGSGTEFTLTISSLQPEDFASYYCQQLNSYPAPVFGPGTKVDIK | – | – | – | 45.4 nM | –
15 | antibody 398 (antibody, V domains shown, also called mAb 398) VH: QVQLVESGGGLVQPGGSLRLSCAASGFTVSSNYMTWVRQAPGKGLEWVSVIYSGGSTYYADSVKGRFTISRDNSKNTLYLQMNSLRADDTAVYYCARDSTADYDFWSGYYVGAFHIWGQGTMVTVSS VL: QTVLTQPASVSGSPGQSITISCTGTSSDVGGYNYVSWYQQHPGKAPKLMIYEVTKRPSGVPDRFSGSKSGNTASLTVSGLQAEDEADYYCSSYAGSNNWVFGGGTKLTVL | – | – | – | – | IC50 (FRNT neutralisation) [6]: > 10 µg/mL; IC50 (FRNT neutralisation) [7]: 0.18 µg/mL; IC50 (FRNT neutralisation) [8]: > 10 µg/mL; IC50 (FRNT neutralisation) [9]: 0.091 µg/mL
16 | Fab of antibody 398 (Fab, V domains shown) VH: QVQLVESGGGLVQPGGSLRLSCAASGFTVSSNYMTWVRQAPGKGLEWVSVIYSGGSTYYADSVKGRFTISRDNSKNTLYLQMNSLRADDTAVYYCARDSTADYDFWSGYYVGAFHIWGQGTMVTVSS VL: QTVLTQPASVSGSPGQSITISCTGTSSDVGGYNYVSWYQQHPGKAPKLMIYEVTKRPSGVPDRFSGSKSGNTASLTVSGLQAEDEADYYCSSYAGSNNWVFGGGTKLTVL | – | – | – | 1.18 nM | –
17 | Fab of antibody 316 (Fab, V domains shown, also called 316 Fab; Fab 316) VH: not shown VL: QAVLTQPPSASGSPGQSVTISCTGTSSDVGGYNYVSWYQQHPGKAPKLMIYEVSKRPSGVPDRFSGSKSGNTASLTVSGLQAEDEADYYCSSYAGSNHWVFGGGTKLTVL | 8.76 nM | 74% | 27.6 nM | 2.81 nM | –
18 | Fab of antibody 281 (Fab, V domains shown) VH: QVQLVESGGGLVQPGGSLRLSCAASGFPFSIYWMSWVRQAPGKGLEWVANIKQDGSEKYYVDSVKGRFTISRDNAKNSLYLHMNSLRGEDTAVYYCASRYYDFRPEAWFDYWGQGTLVTVSS VL: not shown | – | – | – | 4.05 nM | –
19 | Fab of antibody 58 (Fab, V domains shown) VH: QVQLVESGGGLVQPGRSLRLSCAASGFTFDDYAMHWVRQPPGKGLEWVSGVSWNSGTIGYADSVKGRFIISRDNAKNSLYLQMNSLKAEDTALYYCAREVGGTFGVLISREGGLDYWGQGTLVTVSS VL: SYELTQPPSVSVAPGQTARITCGGNTIGSKSVHWYQQRPGQAPVLVVYDDSDRPSGIPERFSGSNSGNTATLTISRVEAGDEADYYCQVWDSSSDRVVFGGGTKLTVL | – | – | – | 0.55 nM | –
20 | Fab of antibody 40 (Fab, V domains shown, also called 40 Fab; Fab 40) VH: QVQLVESGGGLVQPGGSLRLSCAVSGFTVSRNYMSWVRQAPGKGLEWVSLIYSGGSTFYADSVKGRFTISRDNSKNTLYLQMNSLRAEDTAVYYCARDLFHRSGYHDYWGQGTLVTVSS VL: not shown | 1.23 nM | 97.4% | 45.7 nM | 0.97 nM | –

— patent US20240043507A1 (RQ BIOTECHNOLOGY, published 2024)
